The series addresses T1, ZBTB48 ZnF10-11-C (Homo sapiens, UniProt P10074 548-620).
T1 sequence: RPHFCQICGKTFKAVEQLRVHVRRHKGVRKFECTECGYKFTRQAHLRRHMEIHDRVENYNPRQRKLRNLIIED
Put plainly: X-ray crystallography; ZnF11 contacts G10G11G12; R614 contacts G12 and C8T9 of other strand; Pull-down: 150 mM NaCl, 50 mM Tris-HCl pH 7.5, 5 mM MgCl2, 0.5% Igepal CA-630, 1 mM DTT, 20 ug salmon sperm DNA, 4 C 2 h; crystals: 0.2 M imidazole malate pH 8.5, 20% PEG 4K, 20 C. The following applies: protein: recombinant; tags: GST removed by TEV; 5' overhang 1 nt at both ends, 15 bp.

B1: CIITA e.2 crystal duplex (dsDNA)
DNA 1: CACAAGTGAGGGATCA
DNA 2: GTGATCCCTCACTTGT
In the case of B1, the binding result is recorded as “binds”.
